Test results taken from US5602021.

Tests used:
[1] = target: pIII coat protein of bacteriophage CA2000 (OMP1) (filamentous bacteriophage (helper phage R408 derivative))
[2] = target: pIII coat protein of bacteriophage CA2000 (OMP2) (filamentous bacteriophage (helper phage R408 derivative))
[3] = target: pIII coat protein of bacteriophage CA2000 (filamentous bacteriophage (helper phage R408 derivative))
[4] = target: pIII coat protein of bacteriophage TARGETBACK (filamentous bacteriophage (helper phage R408 derivative))
[5] = target: pIII coat protein of bacteriophage CA1000 (filamentous bacteriophage (helper phage R408 derivative))
[6] = target: pIII coat protein of bacteriophage CA2000 (filamentous bacteriophage (helper phage R408 derivative)); remark: listed apart in the source
[7] = target: pIII coat protein of bacteriophage CA1051 (filamentous bacteriophage (helper phage R408 derivative))

Substance	infective phage particles (ampicillin resistant transducing units) from OmpT mediated maturation of pIII [1]	infective phage particles (ampicillin resistant transducing units) from OmpT mediated maturation of pIII [2]	infective phage particles (ampicillin resistant transducing units) from OmpT mediated maturation of pIII [3]	infective phage particles (OmR transducing units) [4]	infective phage particles (OmR transducing units) [5]	infective phage particles (OmR transducing units) [6]	infective phage particles (OmR transducing units) [7]
OmpT protease (from UniProt P09169) (enzyme)	2500 ApR T.U./ml	18000 ApR T.U./ml	< 50 ApR T.U./ml				
host encoded leader peptidase (from UniProt P00803) (enzyme)				1000 OmR T.U./ml	1e+08 OmR T.U./ml	< 50 OmR T.U./ml	30000 OmR T.U./ml
